CN108285485A (WULUMUQI HENGKANG ZHIYUAN BIOTECHNOLOGY CO LTD, dated 2018)
One block for each binder: values may come before it.

Target: PD-1蛋白 (程序性死亡受体-1)
Assay: non-competitive ELISA, PD-1 coated at 2, 1, 0.5 and 0.25 μg/ml, KA=(n-1)/(nAb'-Ab)

Sequence of PD-1蛋白 (程序性死亡受体-1) (chain, as listed by the source): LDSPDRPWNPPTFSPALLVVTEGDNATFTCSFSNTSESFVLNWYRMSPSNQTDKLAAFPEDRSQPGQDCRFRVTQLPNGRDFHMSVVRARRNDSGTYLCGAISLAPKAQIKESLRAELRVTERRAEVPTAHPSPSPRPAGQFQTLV

Ka: 2.62e+11 M⁻¹
B1: His-VHH-H5-c-Myc (VHH)
VHH: QVQLQESGGGSVQAGGSLRLSCAASGSTVRRRCMGWFRQAPGKEREEVAIVDNEGIEQYADFVKGRFTISRDNAKNTLYLQMNSLKPEDTAMYYCAMAPGYTPTGCLVYNTWGQGTQVTVSS
notes: Bactrian camel VHH expressed from pET22b in BL21(DE3); not shown: His tag, named only in the construct name; c-Myc tag, named only in the construct name

Ka: 2.31e+11 M⁻¹
B2: His-VHH-B7-c-Myc (VHH)
VHH: QVQLQESGGGSVQAGGSLRLSCVASQYTYNTVGWFRQAPGKEREGVAGIYNGGDQTYYSESAKGRFTISQDNAKRTVYLQMNSLKPEDTAMYYCAAGRLIVSGRWSMTKEEYQYWGQGTQVTVSS
notes: as for B1

Ka: 4.79e+11 M⁻¹
B3: His-VHH-H12-c-Myc (VHH)
VHH: QVQLQESGGGSVQAGGSLRLSCAVSGGTTRRRCMGWFRQAPGKEREEVASYDNQGIIKYADFVKGRFTISRDNAKNTLYLQMNTLKPEDTAMYYCAMAPGYDNRGCLVYNTWGQGTQVTVSS
notes: as for B1
